According to PMC8655031, “Loss of peptidase D binding restores the tumor suppressor functions of oncogenic p53 mutants” (Communications Biology, 2021):

Columns and labels:
[1] = target: T1, recombinant human p53, N-terminal His tagged (human, UniProt P04637 1-393); assay: cross-linking; PEPD (801 nM) and p53 or p53^R175H (114 nM), alone or together, in PBS pH 7.4 for 15 min at RT, then 2 mM BS3 for 30 min at RT; WB on 5% SDS-PAGE; conditions: both partners purified
T1 construct: human p53 from pET15b-His-human p53; also called His-human p53; source: E. coli BL21-AI, purified (Ni-NTA)

[2] = target: the molecule itself; assay: as above

stoichiometry N [1]: 1 PEPD dimer per p53 tetramer
B1: recombinant human PEPD (peptidase D), C-terminal His tagged (enzyme, UniProt P12955 1-493, looked up)
chain: MAAATGPSFWLGNETLKVPLALFALNRQRLCERLRKNPAVQAGSIVVLQGGEETQRYCTDTGVLFRQESFFHWAFGVTEPGCYGVIDVDTGKSTLFVPRLPASHATWMGKIHSKEHFKEKYAVDDVQYVDEIASVLTSQKPSVLLTLRGVNTDSGSVCREASFDGISKFEVNNTILHPEIVECRVFKTDMELEVLRYTNKISSEAHREVMKAVKVGMKEYELESLFEHYCYSRGGMRHSSYTCICGSGENSAVLHYGHAGAPNDRTIQNGDMCLFDMGGEYYCFASDITCSFPANGKFTADQKAVYEAVLRSSRAVMGAMKPGVWWPDMHRLADRIHLEELAHMGILSGSVDAMVQAHLGAVFMPHGLGHFLGIDVHDVGGYPEGVERIDEPGLRSLRTARHLQPGMVLTVEPGIYFIDHLLDEALADPARASFLNREVLQRFRGFGGVRIEEDVVVTDSGIELLTCVPRTVEEIEACMAGCDKAFTPFSGPK
notes: human peptidase D (PEPD, prolidase), from pBAD/TOPO-human PEPD-His; the discussion speaks of PEPD as 493 aa; also called prolidase; PEPD-His; source: E. coli One Shot TOP10, purified (Ni-NTA)
stoichiometry N [2]: 2
